Data from US20250179210A1, “ANTI-CEACAM5 ANTIBODIES AND CONJUGATES AND USES THEREOF” (Merck Patent GmbH, priority 2022, published 2025).

Molecular target: Recombinant Macaca fascicularis CEACAM5_ECD-His-biotin (Syngene) (Macaca fascicularis)
Experiment: BLI (Octet Red), biotinylated antigen captured on streptavidin biosensor, Fab as analyte 6.25-200 nM

Chain of Recombinant Macaca fascicularis CEACAM5_ECD-His-biotin (Syngene) (Macaca fascicularis) (chain, as listed by the source limits assumed, form in doubt): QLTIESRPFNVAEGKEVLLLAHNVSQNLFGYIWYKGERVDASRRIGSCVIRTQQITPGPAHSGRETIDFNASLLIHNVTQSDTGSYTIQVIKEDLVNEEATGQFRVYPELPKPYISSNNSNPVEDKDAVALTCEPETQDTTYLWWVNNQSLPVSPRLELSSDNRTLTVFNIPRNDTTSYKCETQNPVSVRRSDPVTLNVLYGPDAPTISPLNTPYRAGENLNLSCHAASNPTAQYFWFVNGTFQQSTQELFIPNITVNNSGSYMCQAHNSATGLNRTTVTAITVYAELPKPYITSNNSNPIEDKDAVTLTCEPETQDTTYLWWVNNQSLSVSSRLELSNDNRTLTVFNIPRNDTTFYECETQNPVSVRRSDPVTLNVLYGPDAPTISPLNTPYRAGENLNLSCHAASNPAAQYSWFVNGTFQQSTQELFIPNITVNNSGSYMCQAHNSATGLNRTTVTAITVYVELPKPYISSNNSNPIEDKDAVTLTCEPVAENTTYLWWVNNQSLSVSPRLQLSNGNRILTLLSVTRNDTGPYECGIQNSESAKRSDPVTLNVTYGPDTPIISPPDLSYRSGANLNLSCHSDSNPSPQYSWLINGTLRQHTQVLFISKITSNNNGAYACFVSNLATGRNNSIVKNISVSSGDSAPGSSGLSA

B1: Fab of mAb1 (Fab, V domains shown)
VH: EVQLQESGPGLVKPSQTLSLTCTVSDGSVSRGGYYLTWIRQHPGKGLEWIGYIYYSGSTYFNPSLRSRVTMSVDTSKNQFSLKLSSVTAADTAVYYCARGIAVAPFDYWGQGTLVTVSS
VL: EIVLTQSPATLSVSPGERATLSCRTSQSVRSNLAWYQQKPGQAPRLLIYAASTRATGIPARFSGSGSGTEFTLTISSLQSEDFAVYYCQQYTNWPFTFGPGTKVDIK
Kd: 14.1 nM
